# Experimental data from PMC4963855.
# Target: mouse recombinant TNF (mouse) (UniProt P06804)
# Chain of UniProt P06804 (P06804 80-235): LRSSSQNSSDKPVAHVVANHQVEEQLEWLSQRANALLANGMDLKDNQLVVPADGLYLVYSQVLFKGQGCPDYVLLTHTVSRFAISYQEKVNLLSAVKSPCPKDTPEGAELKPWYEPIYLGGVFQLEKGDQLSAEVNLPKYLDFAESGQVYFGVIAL
substance,measurement,value
"BmooMP-alpha-I, zinc metalloprotease of class P-I from Bothrops moojeni snake venom (enzyme)",TNF level detected by sandwich ELISA after preincubation of recombinant TNF (1000 pg/mL) with 12 ug/mL BmooMP-alpha-I for 45 min at 37 °C (degradation of TNF),53.4 % decrease
same,TNF level detected by sandwich ELISA after preincubation of recombinant TNF with BmooMP-alpha-I inactivated with 10 mM Na2EDTA (BmooMP-alpha-I(i)),80%
